Data: paper PMC7395135, “Structures of the human mitochondrial ribosome bound to EF-G1 reveal distinct features of mitochondrial translation elongation” (Nature Communications, 2020)

Target: mitoribosomal protein uL12m (human (endogenous in HEK293S GnTI), UniProt P52815 37-198)
Assay: cryo-EM structure; 150 nM 55S mitoribosomes incubated with 5 uM EF-G1mt and 1 mM GMPPCP at 37 °C for 5 min in HEPES polymix buffer; three classes (I, II, III) from one sample
Details: both partners purified

binding result: binds
B1: human mitochondrial elongation factor G1 (natural protein)
chain: not shown
notes: also called EF-G1mt; source: E. coli BL21(DE3) (RIL), purified (Ni-NTA, cation exchange TSKgel SP-5PW)
